One may read the Kd as a measure of binding affinity in units of concentration. In general, koff refers to the first-order rate constant of dissociation. Read a low koff as a long-lived complex. By kon is commonly meant a measure of how fast the partners come together.

Data on 7 molecules can be found in US20240287188A1 (KUMHO HT, published 2024).

Positions count from the first letter of the chain named.

Assay [1] addresses ICAM-1 expressed on the surface of the prostate cancer cell line Du145 (human) (UniProt P05362). Description: flow cytometry on Du145 cells expressing ICAM-1.
For assay [2], the target named is T1, ICAM-1 protein antigen (R&D System) (human, UniProt P05362 28-480).
T1 construct: The assay paragraphs say only 'ICAM-1 (R&D System)'; also called antigen ICAM-1; ICAM-1 antigen
T1 sequence (P05362 28-480 limits assumed): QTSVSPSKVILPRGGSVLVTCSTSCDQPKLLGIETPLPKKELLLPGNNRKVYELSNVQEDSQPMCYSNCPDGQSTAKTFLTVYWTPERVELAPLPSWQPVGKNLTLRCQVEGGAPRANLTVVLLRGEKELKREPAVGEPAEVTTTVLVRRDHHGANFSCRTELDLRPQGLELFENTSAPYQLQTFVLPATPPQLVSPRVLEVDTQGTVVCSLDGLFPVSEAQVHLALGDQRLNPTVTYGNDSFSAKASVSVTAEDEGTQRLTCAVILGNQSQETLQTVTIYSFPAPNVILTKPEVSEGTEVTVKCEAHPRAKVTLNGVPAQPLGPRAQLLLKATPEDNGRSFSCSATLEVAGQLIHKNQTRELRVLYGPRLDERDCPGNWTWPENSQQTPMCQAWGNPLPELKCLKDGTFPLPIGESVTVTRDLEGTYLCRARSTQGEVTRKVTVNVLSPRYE
The assay can be described thus: ELISA, ICAM-1 coated 100 ng/well, anti-human Ig-HRP. The protocol:
The antigen ICAM-1 (ICAM-1; R&D System) was coated on a 96 well plate at 100 ng per well, followed by blocking. The amount of the primary antibody was serially diluted twice from 80 ng/ml and bound for 1 hour at 37° C. and a secondary antibody diluted 1:10000 with goat anti-Human Ig-HRP conjugate (Jackson ImmunoResearch) was combined at 37° C. for 30 minutes. Each step was washed three times and reacted with TMB (3,3′,5,5′-Tetramethylbenzidine). After the reaction was stopped by treatment with 1N H₂SO₄ solution in the same amount (100 ul) as the TMB solution, the OD value was measured at 450 nm.
For orientation: An ELISA detects its analyte on a solid surface through an enzyme-linked reagent.

Assay [3] concerns the target T1, ICAM-1 protein antigen (R&D System). Description: BLI (Octet), antibody coupled to AR2G amine-reactive sensor, ICAM-1 in solution at 5 concentrations. The procedure:
The Octet system (ForteBio) was used to compare the affinity of the H17L1 and H17L4 humanized antibodies to the antigen with the parent antibody. Each of three antibodies was attached to the amine reactive Bio-sensor AR2G (ForteBio), and 5 different concentrations of ICAM-1 antigen solution were added to induce antigen/antibody reactions to occur. Using the antigen/antibody reaction results, the binding constant (Kon) and the dissociation constant (Koff) were measured, and the affinity (KD) was calculated, and the results are shown in Table 10 and FIG. 8: […]

Chain of ICAM-1 expressed on the surface of the prostate cancer cell line Du145 (human) (P05362 28-532): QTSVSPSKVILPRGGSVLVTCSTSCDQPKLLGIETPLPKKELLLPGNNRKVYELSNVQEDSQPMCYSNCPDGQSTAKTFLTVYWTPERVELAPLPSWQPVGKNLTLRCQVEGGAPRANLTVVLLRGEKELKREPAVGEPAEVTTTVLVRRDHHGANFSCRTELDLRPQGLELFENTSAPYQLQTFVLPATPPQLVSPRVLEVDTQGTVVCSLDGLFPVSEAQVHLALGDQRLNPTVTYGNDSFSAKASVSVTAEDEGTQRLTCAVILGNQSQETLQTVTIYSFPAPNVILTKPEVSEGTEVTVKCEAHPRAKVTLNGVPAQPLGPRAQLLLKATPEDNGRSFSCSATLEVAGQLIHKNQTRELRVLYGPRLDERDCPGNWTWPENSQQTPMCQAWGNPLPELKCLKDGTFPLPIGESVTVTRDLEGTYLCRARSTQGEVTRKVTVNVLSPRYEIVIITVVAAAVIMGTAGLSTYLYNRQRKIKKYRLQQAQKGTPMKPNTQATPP

Regarding Negative control, in assay [1], the % Gated (marker M1) stood at 0.58%, the Mean (marker All) turned out to be 3.9 and the Mean (marker M1) came to 91.

B1: humanized anti-ICAM-1 antibody H17L3 (VH17 + VL3), human IgG4/kappa (antibody, V domains shown)
VH: QVQLVQSGAEVKKPGASVKISCKGSGYTFTDYALHWVRQAPGQRLEWMGVISTYSGNTDYNQKFRGRATITVDTSASTAYMELSSLRSEDTAVYYCARSLYFGSSGFDYWGQGTALTVSS
VL: DVVLTQTPLSSPVTLGQPASISCRSSQTLVYRNGNTYLHWYLQRAGQPPRLLIYKVSNRFSGVPDRFSGSGAGTDFTLKISRVEAEDVGVYFCSQNTHFPYTFGGGTKLEIKT
notes: The Arg at the VL/CL junction is in neither entry
In the case of B1, in assay [2], the “OD 450 nm at 2.5 ng/ml antibody” value is 0.135 OD (450 nm), the “OD 450 nm at 5 ng/ml antibody” value is 0.201 OD (450 nm), the “OD 450 nm at 10 ng/ml antibody” value was 0.344 OD (450 nm) and the “OD 450 nm at 20 ng/ml antibody” value was 0.567 OD (450 nm). In addition, in assay [2], the “OD 450 nm at 40 ng/ml antibody” value is 0.848 OD (450 nm) and the “OD 450 nm at 80 ng/ml antibody” value is 1.2 OD (450 nm).

B2: humanized anti-ICAM-1 antibody H17L4 (VH17 + VL4), human IgG4/kappa (antibody, V domains shown)
VH: B1 VH
VL: B1 VL with L42Q, A45P
notes: The Arg at the VL/CL junction is in neither entry; also called DNP007; DNP007 antibody (H17L4 antibody)
As for B2, in assay [2], the “OD 450 nm at 2.5 ng/ml antibody” value is 0.136 OD (450 nm), the “OD 450 nm at 5 ng/ml antibody” value was 0.236 OD (450 nm), the “OD 450 nm at 10 ng/ml antibody” value was 0.349 OD (450 nm) and the “OD 450 nm at 20 ng/ml antibody” value is 0.637 OD (450 nm). Also, in assay [2], the “OD 450 nm at 40 ng/ml antibody” value is 0.983 OD (450 nm) and the “OD 450 nm at 80 ng/ml antibody” value is 1.24 OD (450 nm). In assay [3], the Kd is 3.62 nM, the koff is 0.000929 s⁻¹ and the kon worked out at 256000 M⁻¹ s⁻¹.

B3: humanized anti-ICAM-1 antibody H5L3 (VH5 + VL3), human IgG4/kappa (antibody, V domains shown)
VH: B1 VH with G24A, A68V, T74K, S77T
VL: B1 VL
notes: as for B1
With B3, in assay [2], the “OD 450 nm at 2.5 ng/ml antibody” value is 0.128 OD (450 nm), the “OD 450 nm at 5 ng/ml antibody” value was 0.208 OD (450 nm), the “OD 450 nm at 10 ng/ml antibody” value was 0.35 OD (450 nm) and the “OD 450 nm at 20 ng/ml antibody” value was 0.592 OD (450 nm). In assay [2], the “OD 450 nm at 40 ng/ml antibody” value is 0.862 OD (450 nm) and the “OD 450 nm at 80 ng/ml antibody” value is 1.25 OD (450 nm).

B4: humanized anti-ICAM-1 antibody H17L1 (VH17 + VL1), human IgG4/kappa (antibody, V domains shown)
VH: B1 VH
VL: B1 VL with T7S, S11L, L42Q, A45P, P48S, A72S
Consider B4, for which, in assay [2], the “OD 450 nm at 2.5 ng/ml antibody” value is 0.119 OD (450 nm), the “OD 450 nm at 5 ng/ml antibody” value was 0.186 OD (450 nm), the “OD 450 nm at 10 ng/ml antibody” value was 0.297 OD (450 nm) and the “OD 450 nm at 20 ng/ml antibody” value is 0.506 OD (450 nm). Besides, in assay [2], the “OD 450 nm at 40 ng/ml antibody” value was 0.802 OD (450 nm) and the “OD 450 nm at 80 ng/ml antibody” value is 1.11 OD (450 nm). In assay [3], this molecule came in with a Kd of 3.43 nM, a koff of 0.000853 s⁻¹ and a kon of 249000 M⁻¹ s⁻¹.

B5: humanized anti-ICAM-1 antibody H4L3 (VH4 + VL3), human IgG4/kappa (antibody, V domains shown)
VH: B1 VH with I20V, G24A, M48I, A68V, I70M, V72R, S77T, M81L
VL: B1 VL
notes: as for B1
In the case of B5, in assay [2], the “OD 450 nm at 2.5 ng/ml antibody” value was 0.115 OD (450 nm), the “OD 450 nm at 5 ng/ml antibody” value was 0.189 OD (450 nm), the “OD 450 nm at 10 ng/ml antibody” value is 0.305 OD (450 nm) and the “OD 450 nm at 20 ng/ml antibody” value is 0.52 OD (450 nm). Further, in assay [2], the “OD 450 nm at 40 ng/ml antibody” value was 0.832 OD (450 nm) and the “OD 450 nm at 80 ng/ml antibody” value is 1.23 OD (450 nm).

B6: chimeric anti-ICAM-1 antibody SI9 (mouse SI9 variable regions, human IgG4/kappa constant regions) (antibody)
heavy: QVQLQQSGAELVRPGVSVKISCKGSGYTFTDYALHWVKQSHAKSLEWIGVISTYSGNTDYNQKFRGKATMTVDKSSTTAYLELARLTSEDSAIHYCARSLYFGSSGFDYWGQGTALTVSS
light: DVVLTQTPLSLPVNLGDQASISCRSSQTLVYRNGNTYLHWYLQKAGQSPKLLIYKVSNRFSGVPDRFSGSGSGTDFTLKISRVEAEDLGVYFCSQNTHFPYTFGGGTKIKR
notes: the hinge lies in the heavy chain; also called chimeric antibody SI9; SI9 Chimeric; not shown: human IgG4 heavy chain constant region, GenBank AIC59040.1 (printed), hinge 'CPSCP' modified to 'CPPCP' (position not pr); human kappa light chain constant region, GenBank AAA58989.1 (printed)
For the molecule B6, in assay [2], the “OD 450 nm at 2.5 ng/ml antibody” value is 0.118 OD (450 nm), the “OD 450 nm at 5 ng/ml antibody” value was 0.182 OD (450 nm), the “OD 450 nm at 10 ng/ml antibody” value is 0.298 OD (450 nm) and the “OD 450 nm at 20 ng/ml antibody” value was 0.473 OD (450 nm). In assay [2], the “OD 450 nm at 40 ng/ml antibody” value was 0.724 OD (450 nm) and the “OD 450 nm at 80 ng/ml antibody” value was 1.14 OD (450 nm). In assay [3], this molecule displayed a Kd of 10.3 nM, a koff of 0.00169 s⁻¹ and a kon of 165000 M⁻¹ s⁻¹.
